The source of these data is article PMC10244946.

Like-named read-outs stand apart in the source and are kept apart here.

Assay [1] concerns the target HER2 on HER2-expressing BT474 and SKOV-3 cells (human (endogenous in BT474 and SKOV-3)) (UniProt P04626). The assay can be described thus: radioligand binding.
The target in assay [2] is HER2 (antigen of the Lindmo immunoreactive fraction assay; form not told). The assay can be described thus: Lindmo assay.
Assay [3] addresses HER2 on HER2-expressing BT474 and SKOV-3 cells (human (endogenous in BT474 and SKOV-3)) (UniProt P04626). Description: radioligand binding. The source holds these as a separate data set.

In turn, [^125I]MEGMIB-5F7GGC (VHH) registered a percent associated with cells after 1 h at 4 °C in assay [1] of 5.8%.

In turn, [^177Lu]Lu-DOTA-PODS-5F7GGC (VHH) came in with an immunoreactive fraction in assay [2] of 71.2%.

Turning to [^211At]MEAGMB-5F7GGC (VHH), the Kd (commonly the concentration at which binding is half-saturated) in assay [1] came out at 3.4 nM. The immunoreactive fraction in assay [2] is 69%.

In assay [1], iso-[^131I]GMIB-PODS-5F7GGC (VHH) registered a Kd of 5.9 nM and a percent of input activity bound to cells after 1 h at 4 °C of 7.4%. Also, in assay [3], the Kd is 3.3 nM. Further, in assay [2], the immunoreactive fraction stood at 84%.

In assay [1], iso-[^211At]AGMB-PODS-5F7GGC (VHH) gave a percent of input activity bound to cells after 1 h at 4 °C of 7.5%. Also, in assay [2], the immunoreactive fraction was 85.8%.
